From JP2004500847A (dated 2004)
“And” between values parts separate entries of the source, which are not always exact repeats. Equal values may be shown once.

Assays:
[1] = molecular target: HLA-DR on HLA-DR-positive cell lines (GRANTA-519, MHH-CALL4, Priess or LG2; allotype not stated) (human); assay: cell-based or functional assay
[2] = molecular target: T1, human MHC class II DR protein (DRA*0101/DRB1*0401) purified from Priess cells (human, UniProt P01903 26-254; P01911 30-266, limits assumed); assay: SPR (Biacore), DR protein on the chip
T1 construct: mature; Native heterodimer isolated from cell lysate; Coated on ELISA plates or coupled to a BIAcore CM5 chip; also called HLA-DR protein; MHC-class II DRA*0101/DRB1*0401
T1 MHC II alpha: not shown
T1 MHC II beta: not shown

[3] = molecular target: HLA-DR on the human B lymphoblastoid cell line LG-2 (human); assay: flow cytometry on LG-2 cells, 35 ug Fab first; competitor 1-1C4 (2 ug)

- Kd [2]: 346 nM
- decrease of binding of the mouse antibody [3]: 50%
B1: MS-GPC-8-Fab (Fab, V domains shown)
VH: QVQLKESGPALVKPTQTLTLTCTFSGFSLSTSGVGVGWIRQPPGKALEWLALIDWDDDKYYSTSLKTRLTISKDTSKNQVVLTMTNMDPVDTATYYCARSPRYRGAFDYWGQGTLVTVSS
VL: DIVLTQPPSVSGAPGQRVTISCSGSSSNIGSNYVSWYQQLPGTAPKLLIYDNNQRPSGVPDRFSGSKSGTSASLAITGLQSEDEADYYCQSYDMPQAVFGGGTKLTVLG
- EC50 of cell killing (Priess or LG2 cells), as concentration of the bivalent cross-linked (Fab) dimer [1]: < 60 nM
- EC50 of cell killing (Priess or LG2 cells), as concentration of the monovalent fragment, cross-linked with anti-FLAG M2 [1]: < 120 nM
- EC50 of cell killing (concentration of the bivalent cross-linked Fab dimer; cell line not named here) [1]: 20 nM and 40 nM
- maximal killing of MHH-CALL 4 cells [1]: 65%
